# Experimental data as given in patent US20210403546A1 (LUDWIG INSTITUTE FOR CANCER RESEARCH, published 2021).
# Biological target: T1, human recombinant TGF-b1 (human, UniProt P01137 279-390)
# T1 construct: also called TGF-β1; hTGF-β1
# Test: competition ELISA on hTGF-β1-coated plate; competitor biotinylated murine 13A1
# Experimental: Nunc Maxisorb ELISA plates were coated overnight at 8° C. with 0.5 μg/ml hTGF-β1 (Peter Sun, NIH) or hTGF-β3 (Shenandoah Biotech) at 0.5 μg/ml in 40 mM glycine buffer pH 9. Plates were washed and blocked with 10% FCS for 1 h at 37° C. In a separate low binding Greiner Bio-One ELISA plate, various concentrations of competing Abs were mixed with a constant concentration of biotinylated parental 13A1 or 1901 at 200 ng/ml in PBS+BSA (10 mg/ml) and then transferred onto the TGF-β-coated Nunc Maxisorb ELISA plate. After incubation for 2 h at 37° C. plates were washed, Avidine-HRP added and incubated for 1 h at 37° C. Plates washed again, TMB substrate was added and bound biotinylated antibody was quantitated by measuring color development in an ELISA reader at a wave length of 450 nm.
# The potency of the humanized LCR13A1 IgG4 antibody variants to compete with the parental murine antibody for binding to TGFb1 was assessed by ELISA. The six IgG4 variants LCR13A1_VH_GLv3_LCR13A1_VK_GLv3 (LCR13A1-2A), LCR13A1_VH_GLv1_03_LCR13A1_VK_GLv3 (LCR13A1-2B), LCR13A1_VH_GLv3_LCR13A1_VK_GLv1_03 (LCR13A1-2C), LCR13A1_VH_GLv1_03_LCR13A1_VK_GLv1_03 (LCR13A1-2D), LCR13A1_VH_GLv1_03_LCR13A1_VK_GLv1_04 (LCR13A1-2E) and LCR13A1_VH_GLv1_03_LCR13A1_VK_GLv1_05 (LCR13A1-2F) competed with the parental murine 13A1 antibody for binding to TGFb1 in a dose-dependent manner (FIG. 17).
# T1 sequence (P01137 279-390 limits assumed): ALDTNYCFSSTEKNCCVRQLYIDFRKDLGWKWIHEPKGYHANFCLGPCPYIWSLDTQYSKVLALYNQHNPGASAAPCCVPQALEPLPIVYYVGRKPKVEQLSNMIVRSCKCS
row,binding result,Binder
1,binds,"LCR13A1_VH_GLv1_03_LCR13A1_VK_GLv1_05 (LCR13A1-2F) IgG4[S228P] (antibody, V domains shown, VK + CK*01; also called Ab 2F; hIgG4 13A1-2F) VH: QVQLVQSGSVLAKPGASVKVSCKASGYTFTNYWMHWVRQAPGQGLEWIGTIYPGNSDTNYNQKFKDRAKLTAVTSTSTVYMELSSLRSEDTAVYYCTREDSRSLYYNGWDYFDYWGQGTLVTVSS VL: DIVMTQSPDSLAVSLGERATISCRASESVDNYGISFLNWFQQKPGQPPKLLIYAASNQGSGVPSRFSGSGSGTDFTLNIHPLEAEDAATYYCQQSKEVPRTFGGGTKVEIKR"
2,binds,"LCR13A1_VH_GLv1_03_LCR13A1_VK_GLv1_04 (LCR13A1-2E) IgG4(S228P) (antibody, V domains shown, Human IgG4 (IGHG4*01 with S228P) and human CK*01; also called Ab 2E) VH: QVQLVQSGSVLAKPGASVKVSCKASGYTFTNYWMHWVRQAPGQGLEWIGTIYPGNSDTNYNQKFKDRAKLTAVTSTSTVYMELSSLRSEDTAVYYCTREDSRSLYYNGWDYFDYWGQGTLVTVSS VL: DIVLTQSPASLAVSLGQRATISCRASESVDNYGISFLNWFQQKPGQPPKLLIYAASNQGSGVPSRFSGSGSGTDFTLNIHPLEAEDAAAYYCQQSKEVPRTFGGGTKVEIK"

# Second part, the binder before the results:
row,Binder,binding result
1,"LCR13A1_VH_GLv1_03_LCR13A1_VK_GLv3 (LCR13A1-2B) IgG4[S228P] (antibody, V domains shown, VK + CK*01; also called Ab 2B) VH: QVQLVQSGSVLAKPGASVKVSCKASGYTFTNYWMHWVRQAPGQGLEWIGTIYPGNSDTNYNQKFKDRAKLTAVTSTSTVYMELSSLRSEDTAVYYCTREDSRSLYYNGWDYFDYWGQGTLVTVSS VL: DIVMTQSPDSLAVSLGERATINCKSSESVDNYGISFLNWFQQKPGKAPKLLIYAASNQGSGVPDRFSGSGSGTDFTLTISSLQAEDVAVYFCQQSKEVPRTFGGGTKLEIKR",binds
2,"LCR13A1_VH_GLv1_03_LCR13A1_VK_GLv1_03 (LCR13A1-2D) IgG4(S228P) (antibody, V domains shown, Human IgG4 (IGHG4*01 with S228P) and human CK*01; also called Ab 2D) VH: QVQLVQSGSVLAKPGASVKVSCKASGYTFTNYWMHWVRQAPGQGLEWIGTIYPGNSDTNYNQKFKDRAKLTAVTSTSTVYMELSSLRSEDTAVYYCTREDSRSLYYNGWDYFDYWGQGTLVTVSS VL: not shown",binds
3,"LCR13A1_VH_GLv3_LCR13A1_VK_GLv3 (LCR13A1-2A) IgG4(S228P) (antibody, V domains shown, Human IgG4 (IGHG4*01 with S228P) and human CK*01; also called Ab 2A) VH: QVQLVQSGSELKKPGASVKVSCKTSGYTFTNYWMHWVRQAPGQGLEWIGTIYPGNSDTNYNQKFQGRVTITRDTSASTAYMELSSLRSEDTAVYFCTREDSRSLYYNGWDYFDYWGQGTTVTVSS VL: DIVMTQSPDSLAVSLGERATINCKSSESVDNYGISFLNWFQQKPGKAPKLLIYAASNQGSGVPDRFSGSGSGTDFTLTISSLQAEDVAVYFCQQSKEVPRTFGGGTKLEIK",binds
4,"LCR13A1_VH_GLv3_LCR13A1_VK_GLv1_03 (LCR13A1-2C) IgG4(S228P) (antibody, V domains shown, Human IgG4 (IGHG4*01 with S228P) and human CK*01; also called Ab 2C) VH: QVQLVQSGSELKKPGASVKVSCKTSGYTFTNYWMHWVRQAPGQGLEWIGTIYPGNSDTNYNQKFQGRVTITRDTSASTAYMELSSLRSEDTAVYFCTREDSRSLYYNGWDYFDYWGQGTTVTVSS VL: not shown",binds

# Biological target: T1, human recombinant TGF-b1
# Test: ELISA, scFv culture on plate-coated TGF-b1, anti-cmyc detection
row,binding result,Binder
1,binds,"LCR13A1_scFv (soluble scFv of murine 13A1) (scFv, Orientation VL-linker-VH; expressed in E. coli from pCHV101; also called LCR13A1 soluble scFv) scFv: DIVLTQSPASLAVSLGQRATISCRASESVDNYGISFLNWFQQKPGQPPKLLIYAASNQGSGVPARFSGSGSGTDFSLNIHPMEEDDTGMYFCQQSKEVPRTFGGGTKLEIKRTVAARQEGGSGEGGSGESNAAAEVQLQQSGTVLARPGASVKMSCKTSGYTFTNYWMHWVRQRPGQGLEWIGTIYPGNSDTNYNQKFKDKAKLTAVTSATTAYMELSSLTNEDSAVYFCTREDSRSLYYNGWDYFDYWGQGTLVTVSSASTKAS"
